The numbers were not newly measured in publication PMC4599702, which cites them from elsewhere.

What is called Kd is the equilibrium constant for the complex coming apart.

In one series the target is p300 KIX (Homo sapiens) (UniProt Q09472). Briefly: microscale thermophoresis.
Another series has as its target CBP KIX (Homo sapiens) (UniProt Q92793).
Chain of UniProt Q92793 (Q92793 584-669): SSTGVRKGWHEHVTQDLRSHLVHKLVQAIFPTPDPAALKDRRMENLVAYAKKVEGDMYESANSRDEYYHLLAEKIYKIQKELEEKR

Chain of UniProt Q09472 (Q09472 563-648): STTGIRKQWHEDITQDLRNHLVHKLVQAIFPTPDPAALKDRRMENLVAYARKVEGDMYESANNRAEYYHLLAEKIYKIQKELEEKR

In the case of Myb (from UniProt P10242), the Kd with p300 KIX (Homo sapiens) is 2500 nM; with CBP KIX (Homo sapiens), 650 nM.
